The test addresses Torpedo californica nicotinic acetylcholine receptor (Torpedo californica) (UniProt P02710). Briefly: SEC. A general note: SEC sorts molecules by how far they enter the pores of the column.

“Torpedo californica nicotinic acetylcholine receptor (from UniProt P02710 25-461; P02712 25-493; P02714 18-506; P02718 22-522) (complex)” yielded a percent dimer of 72.7%.

The values are drawn from article PMC3437550.
